Measured values published in patent publication US20240116985A1, “STAPLED PEPTIDES AND METHODS THEREOF” (priority 2020, published 2024).
Starred links: 1 amine or outer side, 2 acyl side, 3 side chain; linkers in the order of their positions; H or OH if unused. Positions of bridges follow the written chain, without caps; N, C: chain ends. Non-standard residues stand in square brackets, D forms with d. Primed or numbered codes have the meaning given here. *: point of attachment. PyrS2″ = (S)-3-amino-1-((pent-4-en-1-yloxy)carbonyl)pyrrolidine-3-carboxylic acid (stapling residue), C=CCCCOC(=O)N1CC[C@@](N[*:1])(C(=O)[*:2])C1; B5(4) = 2,2-bis(4-pentenyl)glycine = 2-amino-2-(pent-4-en-1-yl)hept-6-enoic acid (stitching residue), C=CCCCC(CCCC=C)(N[*:1])C(=O)[*:2]; B5(5) = 2,2-bis(4-pentenyl)glycine, 2-amino-2-(pent-4-en-1-yl)hept-6-enoic acid (stitching residue), C=CCCCC(CCCC=C)(N[*:1])C(=O)[*:2]; B5(33) = 2-amino-2-(pent-4-en-1-yl)hept-6-enoic acid (bis-pentenylglycine, two olefin side chains), C=CCCCC(CCCC=C)(N[*:1])C(=O)[*:2]; PyrS2 = (S)-3-amino-1-((pent-4-en-1-yloxy)carbonyl)pyrrolidine-3-carboxylic acid, C=CCCCOC(=O)N1CC[C@@](N[*:1])(C(=O)[*:2])C1; (Me2diaminobutane)GlnR = N5-methyl-N5-(4-(methylamino)butyl)-L-glutamine, CN(CCCCN(C)[*:3])C(=O)CC[C@H](N[*:1])C(=O)[*:2]; 5IndA = (S)-2-amino-3-(2,3-dihydro-1H-inden-5-yl)propanoic acid, O=C([C@H](Cc1ccc2c(c1)CCC2)N[*:1])[*:2]; (NMe2)GlnR″ = [NMe2]GlnR: N5,N5-dimethyl-L-glutamine, CN(C)C(=O)CC[C@H](N[*:1])C(=O)[*:2]; B5(3) = 2,2-bis(4-pentenyl)glycine (stitching residue), C=CCCCC(CCCC=C)(N[*:1])C(=O)[*:2]; (NMe2)GlnR = N5,N5-dimethyl-L-glutamine, CN(C)C(=O)CC[C@H](N[*:1])C(=O)[*:2]; Phe(3-COOH) = N[C@@H](Cc1cccc(C(=O)O)c1)C(=O)O; Phe(2-CF3) = N[C@@H](Cc1ccccc1C(F)(F)F)C(=O)O; Phe(3,4-Me2) = Cc1ccc(C[C@H](N)C(=O)O)cc1C; Phe(3-Br) = N[C@@H](Cc1cccc(Br)c1)C(=O)O; Phe(2-Cl) = N[C@@H](Cc1ccccc1Cl)C(=O)O; 1Nal = N[C@@H](Cc1cccc2ccccc12)C(=O)O; 2Nal = N[C@@H](Cc1ccc2ccccc2c1)C(=O)O; Bta = N[C@@H](Cc1csc2ccccc12)C(=O)O; Isobutyloxycarbonyl = CC(C)COC(=O)*; αAllylPro = C=CC[C@@]1(C(=O)O)CCCN1; tBuAla = CC(C)(C)C[C@H](N)C(=O)O; 3Thi = N[C@@H](Cc1ccsc1)C(=O)O; 2F3MeF″ = Phe derivative; Propioloyl = C#CC(=O)*; Aib = CC(C)(N)C(=O)O

Assays:
[1] = target: Bcat-Halo (UniProt P35222); test: NanoBRET Abs IC50, HEK293 cells, Bcat-Halo / TCF4-Luc
Bcat-Halo, sequence (P35222 whole entry): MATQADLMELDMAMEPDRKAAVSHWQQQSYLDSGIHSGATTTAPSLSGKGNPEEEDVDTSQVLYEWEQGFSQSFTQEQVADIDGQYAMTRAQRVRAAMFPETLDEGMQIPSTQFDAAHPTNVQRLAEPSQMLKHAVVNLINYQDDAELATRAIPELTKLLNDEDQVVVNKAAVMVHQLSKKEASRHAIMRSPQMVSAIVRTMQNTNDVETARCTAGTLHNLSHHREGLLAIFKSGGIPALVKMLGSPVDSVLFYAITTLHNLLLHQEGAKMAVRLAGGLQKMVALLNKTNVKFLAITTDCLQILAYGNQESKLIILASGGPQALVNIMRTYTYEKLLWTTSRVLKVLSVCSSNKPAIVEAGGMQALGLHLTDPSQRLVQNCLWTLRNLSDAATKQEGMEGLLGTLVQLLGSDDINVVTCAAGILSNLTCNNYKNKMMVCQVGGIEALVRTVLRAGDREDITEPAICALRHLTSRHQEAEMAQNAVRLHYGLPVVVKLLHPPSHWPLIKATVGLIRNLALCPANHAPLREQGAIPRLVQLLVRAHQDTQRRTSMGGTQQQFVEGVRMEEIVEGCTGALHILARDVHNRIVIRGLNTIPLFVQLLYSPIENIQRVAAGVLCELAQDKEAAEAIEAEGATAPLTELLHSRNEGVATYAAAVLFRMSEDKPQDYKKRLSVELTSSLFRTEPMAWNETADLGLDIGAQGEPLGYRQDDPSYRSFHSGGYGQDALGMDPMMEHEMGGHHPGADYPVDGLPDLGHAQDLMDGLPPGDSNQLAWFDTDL

[2] = target: full-length beta-Catenin (Uniprot ID P35222) (Homo sapiens (Human)) (UniProt P35222); test: fluorescence polarization competition against 5FAM-TCF4(10-53), full-length beta-catenin
Target sequence in this assay (P35222 whole entry, one chain of several): as the sequence (P35222 whole entry) above

[3] = target: full-length beta-Catenin (Uniprot ID P35222) (Homo sapiens (Human)) (UniProt P35222); test: fluorescence polarization competition, competitor 5FAM-TCF4 10-53
Target sequence in this assay (P35222 2-781 limits assumed): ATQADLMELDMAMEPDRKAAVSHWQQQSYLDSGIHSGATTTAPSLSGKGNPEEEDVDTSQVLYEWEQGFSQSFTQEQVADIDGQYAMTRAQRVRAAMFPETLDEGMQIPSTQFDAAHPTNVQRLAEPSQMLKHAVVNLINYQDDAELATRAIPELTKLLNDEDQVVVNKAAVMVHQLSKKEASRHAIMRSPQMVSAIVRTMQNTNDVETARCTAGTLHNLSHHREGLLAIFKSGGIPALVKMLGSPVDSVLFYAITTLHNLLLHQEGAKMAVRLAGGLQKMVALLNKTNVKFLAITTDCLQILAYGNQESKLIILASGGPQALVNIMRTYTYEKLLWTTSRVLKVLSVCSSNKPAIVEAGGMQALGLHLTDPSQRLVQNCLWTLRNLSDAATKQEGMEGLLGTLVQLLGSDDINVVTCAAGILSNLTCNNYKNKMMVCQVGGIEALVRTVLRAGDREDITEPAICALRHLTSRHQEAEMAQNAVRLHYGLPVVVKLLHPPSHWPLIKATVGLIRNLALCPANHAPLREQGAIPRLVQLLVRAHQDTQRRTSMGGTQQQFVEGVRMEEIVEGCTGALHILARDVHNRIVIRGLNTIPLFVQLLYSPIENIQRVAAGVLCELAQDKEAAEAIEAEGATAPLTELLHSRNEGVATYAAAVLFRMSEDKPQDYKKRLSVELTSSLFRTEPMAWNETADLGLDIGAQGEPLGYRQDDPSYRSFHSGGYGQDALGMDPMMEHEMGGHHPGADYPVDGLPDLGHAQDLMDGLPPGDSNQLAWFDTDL

[4] = target: full-length beta-Catenin (Uniprot ID P35222) (Homo sapiens (Human)) (UniProt P35222); test: fluorescence polarization competition; full-length beta-catenin + 5FAM-TCF4(10-53) probe
Target sequence in this assay (P35222 whole entry, one chain of several): as the sequence (P35222 whole entry) above

[5] = target: B-cat-Halo (beta-catenin HaloTag NanoBRET construct expressed in HEK293 cells) (UniProt P35222); test: NanoBRET in HEK293 cells, Bcat-Halo / TCF4-Luc (competitor TCF4-Luc); absolute IC50
B-cat-Halo (beta-catenin HaloTag NanoBRET construct expressed in HEK293 cells), sequence (P35222 whole entry): as above

[6] = target: full-length beta-Catenin (Uniprot ID P35222) (Homo sapiens (Human)) (UniProt P35222); test: fluorescence polarization competition; full-length beta-catenin, competitor 5FAM-TCF4(10-53) probe
Target sequence in this assay (P35222 2-781 limits assumed): as the sequence (P35222 2-781 limits assumed) above

Row | Binder | IC50 [1] [nM] | IC50 [2] [nM] | IC50 [5] [nM] | IC50 [6] [nM] | also measured
1 | Ac-[αAllylPro]D[tBuAla][B5(4)]D[Phe(3-COOH)][(NHEt)GlnR]AFL[PyrS2″][2F3MeF″][Bta][(NHEt)GlnR]-NH2 (staple 1-4, 4-11) [I-2299] | 5200 | 7 |  |  | 
2 | Ac-[αAllylPro]D[tBuAla][B5(4)]D[Phe(3-COOH)]QAFV[PyrS2″][3Thi][RbMe2NapA]A-NH2 (staple 1-4, 4-11) [I-2312] | 5200 | 5 |  |  | 
3 | Ac-[αAllylPro]D[tBuAla][B5(33)]DTLAFT[PyrS2]F[Bta]S-NH2 (staple 1-4, 4-11 (inferred); not fully specified; printed as Ac-PL3-Asp-Npg-B5-Asp-Thr-Leu-Ala-Phe-Thr-PyrS2-Phe-BztA-Ser-NH2) [I-1264] |  |  |  |  | IC50 [3]: 157 nM; EC50 [4]: 157 nM
4 | Ac-[αAllylPro]D[tBuAla][B5(3)]DTALFT[PyrS2″]F[Bta]S-NH2 (staple 1-4; staple 4-11 (inferred); not fully specified; printed as Ac-PL3-Asp-Npg-B5-Asp-Thr-Ala-Leu-Phe-Thr-PyrS2-Phe-BztA-Ser-NH2) [I-1265] |  |  |  |  | IC50 [3]: 152 nM; EC50 [4]: 152 nM
5 | Ac-[αAllylPro]D[tBuAla][B5(4)]D[Phe(3-COOH)]QAFV[PyrS2″][3Thi][SbMe2NapA]A-NH2 (staple 1-4, 4-11) [I-2314] | > 20000 | 48 |  |  | 
6 | Ac-[αAllylPro]D[tBuAla][B5(3)]DTAA[2Nal]T[PyrS2″]F[Bta]S-NH2 (staple 1-4; staple 4-11 (inferred); not fully specified; printed as Ac-PL3-Asp-Npg-B5-Asp-Thr-Ala-Ala-2NapA-Thr-PyrS2-Phe-BztA-Ser-NH2) [I-1267] |  |  |  |  | IC50 [3]: 181 nM; EC50 [4]: 181 nM
7 | Ac-[αAllylPro]D[tBuAla][B5(4)]D[Phe(3-COOH)]QAFV[PyrS2″][3Thi][2Nal]A-NH2 (staple 1-4, 4-11) [I-2310] | 8900 | 18 |  |  | 
8 | Ac-[αAllylPro]D[tBuAla][B5(4)]D[Phe(3-COOH)]QAFV[PyrS2][3Thi][5IndA]A-NH2 (staple 1-4, 4-11) [I-2296] | 5100 | 6 |  |  | 
9 | Ac-[αAllylPro]D[tBuAla][B5(4)]D[Phe(3-COOH)][(Me2diaminobutane)GlnR]AFV[PyrS2″][3Thi][Bta]A-NH2 (staple 1-4, 4-11) [I-2301] | > 20000 | 5 |  |  | 
10 | Ac-[αAllylPro]D[tBuAla][B5(4)]D[Phe(3-COOH)]AAFL[PyrS2″][3Thi][Phe(3-Br)]Q-NH2 (staple 1-4, 4-11) [I-2307] | 8900 | 16 |  |  | 
11 | Ac-[αAllylPro]D[tBuAla][B5(3)]DTAA[1Nal]T[PyrS2″]F[Bta]S-NH2 (staple 1-4; staple 4-11 (inferred); not fully specified; printed as Ac-PL3-Asp-Npg-B5-Asp-Thr-Ala-Ala-1NapA-Thr-PyrS2-Phe-BztA-Ser-NH2) [I-1266] |  |  |  |  | IC50 [3]: 755 nM; EC50 [4]: 755 nM
12 | Ac-[αAllylPro]D[tBuAla][B5(4)]D[Phe(3-COOH)]QAFL[PyrS2][Phe(2-CF3)][Phe(3,4-Me2)]A-NH2 (staple 1-4, 4-11) [I-2294] | 4600 | 16 |  |  | 
13 | Ac-[αAllylPro]D[tBuAla][B5(4)]D[Phe(3-COOH)][(NHEt)GlnR]AFV[PyrS2″][3Thi][Bta]A-NH2 (staple 1-4, 4-11) [I-2302] | 2500 | 5 |  |  | 
14 | Ac-[αAllylPro]D[tBuAla][B5(4)]D[Phe(3-COOH)][(NMe2)GlnR]AFV[PyrS2″][3Thi][Bta]A-NH2 (staple 1-4, 4-11) [I-2303] | 1200 | 5 |  |  | 
15 | Ac-[αAllylPro]D[tBuAla][B5(4)]D[Phe(3-COOH)][(NMe2)GlnR″]AFL[PyrS2″][2F3MeF″][Bta][(NMe2)GlnR″]-NH2 (staple 1-4, 4-11) [I-2300] | 1200 | 6 |  |  | 
16 | Ac-[αAllylPro]D[tBuAla][B5(5)]D[Phe(3-COOH)]AAFL[PyrS2][Phe(2-CF3)][Bta]QL[dL]-NH2 (staple 1-4, 4-11) [I-2396] |  |  | 8300 | 187 | 
17 | Isobutyloxycarbonyl-[αAllylPro]D[tBuAla][B5(4)]D[Phe(3-COOH)]AAFL[PyrS2″][Phe(2-Cl)][Bta]A-NH2 (staple 1-4, 4-11) [I-2305] | > 20000 | 65 |  |  | 
18 | Ac-[αAllylPro]D[tBuAla][B5(4)]D[Phe(3-COOH)]QAFL[PyrS2″][Phe(2-CF3)][5IndA]A-NH2 (staple 1-4, 4-11) [I-2298] | 4600 | 8 |  |  | 

Further lines, with some results ahead:

Row | IC50 [1] [nM] | IC50 [2] [nM] | IC50 [5] [nM] | IC50 [6] [nM] | Binder | also measured
19 |  |  | > 20000 | 12 | Propioloyl-[αAllylPro]D[tBuAla][B5(5)]D[Phe(3-COOH)]AAFL[PyrS2″][Phe(2-Cl)][Bta]A-NH2 (staple 1-4, 4-11) [I-2403] | 
20 |  |  | > 20000 | 16 | propiolyl-[αAllylPro]D[tBuAla][B5(5)]DDAAFQ[PyrS2][3Thi][Bta]H-NH2 (staple 1-4, 4-11) [I-2402] | 
21 |  |  | 7800 | 53 | Ac-[αAllylPro]D[tBuAla][B5(5)]D[Phe(3-COOH)]AAFL[PyrS2][Phe(2-CF3)][Bta]QL[dT]-NH2 (staple 1-4, 4-11) [I-2397] | 
22 |  |  | 2800 | 17 | Ac-[αAllylPro]D[tBuAla][B5(5)]D[Phe(3-COOH)]AAFL[PyrS2][Phe(2-CF3)][Bta]QAA-NH2 (staple 1-4, 4-11) [I-2399] | 
23 |  |  | > 20000 | 138 | Ac-[αAllylPro]D[tBuAla][B5(5)]NT[Aib]AFR[PyrS2][3Thi][Bta]Q-NH2 (staple 1-4, 4-11) [I-2407] | 
24 |  |  | 2500 | 142 | Ac-[αAllylPro]D[tBuAla][B5(5)]D[Phe(3-COOH)]AAFL[PyrS2][Phe(2-CF3)][Bta]QFA-NH2 (staple 1-4, 4-11) [I-2400] | 
25 |  |  | 50000 | 397 | Ac-[αAllylPro]D[tBuAla][B5(5)]NT[Aib]AFT[PyrS2][3Thi][Bta]Q-NH2 (staple 1-4, 4-11) [I-2409] | 
26 |  |  | 4400 | 37 | Ac-[αAllylPro]D[tBuAla][B5(5)]D[Phe(3-COOH)]AAFL[PyrS2][Phe(2-CF3)][Bta]QVA-NH2 (staple 1-4, 4-11) [I-2401] | 
